This is an account of results in paper PMC2615625.

One series has as its target NM23-H2 K12A (UniProt P22392 1-152, K12A). Put plainly: EMSA with FRET detection.
The target in the next series is NM23-H2 H118C (UniProt P22392 1-152, H118C). Put plainly: EMSA with FRET detection.
Series [1] has as its target T1, NM23-H2 wild type (UniProt P22392 1-152). The experiment in a line: EMSA with FRET detection.
In series [2] the target is T1, NM23-H2 wild type. The experiment in a line: EMSA.

T1 sequence (P22392 whole entry): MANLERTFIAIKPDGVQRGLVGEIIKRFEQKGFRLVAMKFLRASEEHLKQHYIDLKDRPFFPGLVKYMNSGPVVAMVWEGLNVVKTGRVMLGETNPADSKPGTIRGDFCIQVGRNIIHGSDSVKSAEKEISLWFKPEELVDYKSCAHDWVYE
Sequence of NM23-H2 K12A (P22392 whole entry K12A): as the sequence (P22392 whole entry) above, with K12A counted along it
Sequence of NM23-H2 H118C (P22392 whole entry H118C): as the sequence (P22392 whole entry) above, with H118C counted along it

For TGGGGAGGGTGGGGAGGGTGGGGAAGG (structured_DNA) [FG27T], the binding result with NM23-H2 K12A, in the series with NM23-H2 H118C and with NM23-H2 wild type [1] was “binds” throughout.
As to TGGGGAGGGTGGGGAGGGTGGGGAAGG (structured_DNA) [c-MYC NHE G4 27-mer], the binding result with NM23-H2 wild type [2] is listed as “binds”.
